Measured values as given in paper doi:10.1101/2023.12.18.572191, “Broadly neutralizing antibody induction by non-stabilized SARS-CoV-2 Spike mRNA vaccination in nonhuman primates” (bioRxiv, 2023).

Molecular target: T1, SARS-CoV-2 S HexaPro Protein (SARS-CoV-2, Wuhan-Hu-1, stabilised)
T1 construct: also called Hexapro spike; SARS-CoV-2 spike ectodomain
Test: cryo-EM structure
Conditions: both partners purified

B1: DH1338 antigen-binding fragment (Fab) (Fab, V domains shown)
VH: QLQLQESGPGLVKPSETLSLTCAVSGGSISRKNWSWIRQPPGKGLGWIGRISGSGGSTDYNPSLKSRVTISTDTSKNQFSLKLSSVTAADTAVYYCARVAYYEDDYGYYYTEGAFDFWGQGLRVTVSS
VL: EIVMTQSPATLSLSPGERATLSCRTSQSVSSYVAWYQQKPEQTPRLLIYDASSRATGIPDRFSGGGSGTDFTLTISSLEPEDFAVYYCQQYSNWPWTFGQGTKVEIK
notes: also called DH1338 Fab
stoichiometry N: 3
